The source of these data is patent publication US20240261333A1 (published 2024).

Test in all cases: co-IP with anti-FLAG, C-FLAG B3GNT2, mass spectrometry
The target of one test is T1, SRSF6 (human, UniProt Q13247 1-344).
T1 construct: also called NP_006266.2
T1 sequence (looked up): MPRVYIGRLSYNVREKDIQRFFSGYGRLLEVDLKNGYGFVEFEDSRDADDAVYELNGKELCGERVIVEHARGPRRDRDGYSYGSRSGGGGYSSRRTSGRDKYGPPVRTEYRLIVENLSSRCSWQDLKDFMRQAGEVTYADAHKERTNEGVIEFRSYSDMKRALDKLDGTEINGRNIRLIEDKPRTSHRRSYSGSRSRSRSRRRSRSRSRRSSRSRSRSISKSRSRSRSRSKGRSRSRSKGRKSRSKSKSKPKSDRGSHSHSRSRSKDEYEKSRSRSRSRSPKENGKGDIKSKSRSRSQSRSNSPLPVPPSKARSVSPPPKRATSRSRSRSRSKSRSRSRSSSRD

The target of another test is T2, TGM1 (human, UniProt P22735 1-817, limits assumed).
T2 construct: also called NP_000350.1
T2 sequence (looked up): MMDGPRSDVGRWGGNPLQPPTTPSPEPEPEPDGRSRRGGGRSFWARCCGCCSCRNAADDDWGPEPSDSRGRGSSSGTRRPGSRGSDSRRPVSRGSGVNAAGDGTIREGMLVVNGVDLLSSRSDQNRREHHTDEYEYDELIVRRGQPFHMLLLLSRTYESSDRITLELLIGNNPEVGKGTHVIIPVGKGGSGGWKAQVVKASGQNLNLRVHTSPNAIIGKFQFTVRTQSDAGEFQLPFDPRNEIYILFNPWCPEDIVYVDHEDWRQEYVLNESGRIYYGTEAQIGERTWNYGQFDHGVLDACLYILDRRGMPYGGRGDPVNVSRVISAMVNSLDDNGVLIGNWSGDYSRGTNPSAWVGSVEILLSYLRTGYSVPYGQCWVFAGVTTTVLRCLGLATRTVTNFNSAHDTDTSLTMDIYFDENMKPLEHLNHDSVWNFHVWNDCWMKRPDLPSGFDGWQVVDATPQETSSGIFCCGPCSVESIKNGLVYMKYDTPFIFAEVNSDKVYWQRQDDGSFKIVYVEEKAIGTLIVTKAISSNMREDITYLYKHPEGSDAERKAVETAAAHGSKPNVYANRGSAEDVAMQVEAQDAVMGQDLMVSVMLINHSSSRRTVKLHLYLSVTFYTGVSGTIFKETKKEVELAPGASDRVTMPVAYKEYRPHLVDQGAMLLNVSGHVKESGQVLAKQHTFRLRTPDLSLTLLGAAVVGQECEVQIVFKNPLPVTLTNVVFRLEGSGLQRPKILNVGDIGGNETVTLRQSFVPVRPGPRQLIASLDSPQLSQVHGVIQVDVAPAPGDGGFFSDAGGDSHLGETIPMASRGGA

A further test deals with T3, HBB (human, UniProt P68871 2-147).
T3 construct: also called NP_000509.1

For a further test, the target named is T4, DDX3X (human, UniProt O00571 2-662).
T4 construct: also called NP_001180345.1 (+1)
T4 sequence (O00571 2-662 limits assumed): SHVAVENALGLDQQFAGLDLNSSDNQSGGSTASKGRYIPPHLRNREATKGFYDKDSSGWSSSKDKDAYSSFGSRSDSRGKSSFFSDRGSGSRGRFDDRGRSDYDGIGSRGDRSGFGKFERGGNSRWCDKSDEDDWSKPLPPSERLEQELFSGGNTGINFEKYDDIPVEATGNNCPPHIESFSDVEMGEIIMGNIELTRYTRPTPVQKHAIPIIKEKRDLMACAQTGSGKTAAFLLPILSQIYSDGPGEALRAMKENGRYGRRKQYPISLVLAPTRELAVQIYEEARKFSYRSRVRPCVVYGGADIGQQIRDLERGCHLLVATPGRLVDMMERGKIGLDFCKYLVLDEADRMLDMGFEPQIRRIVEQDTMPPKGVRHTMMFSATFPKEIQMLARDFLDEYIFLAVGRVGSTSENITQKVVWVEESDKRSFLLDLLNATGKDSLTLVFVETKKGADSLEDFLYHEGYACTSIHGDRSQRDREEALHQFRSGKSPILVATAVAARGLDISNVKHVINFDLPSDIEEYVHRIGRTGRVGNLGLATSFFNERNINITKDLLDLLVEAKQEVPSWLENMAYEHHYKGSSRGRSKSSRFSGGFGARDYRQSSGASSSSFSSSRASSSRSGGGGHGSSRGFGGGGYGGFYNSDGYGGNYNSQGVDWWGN

T3 sequence (P68871 2-147 limits assumed): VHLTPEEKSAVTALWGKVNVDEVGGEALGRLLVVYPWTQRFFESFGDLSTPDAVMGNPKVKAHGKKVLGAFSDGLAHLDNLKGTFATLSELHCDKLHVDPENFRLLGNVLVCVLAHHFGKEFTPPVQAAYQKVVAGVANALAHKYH

B1: C-terminal FLAG tagged B3GNT2 (enzyme, human, UniProt Q9NY97 1-397, looked up)
chain: MSVGRRRIKLLGILMMANVFIYFIMEVSKSSSQEKNGKGEVIIPKEKFWKISTPPEAYWNREQEKLNRQYNPILSMLTNQTGEAGRLSNISHLNYCEPDLRVTSVVTGFNNLPDRFKDFLLYLRCRNYSLLIDQPDKCAKKPFLLLAIKSLTPHFARRQAIRESWGQESNAGNQTVVRVFLLGQTPPEDNHPDLSDMLKFESEKHQDILMWNYRDTFFNLSLKEVLFLRWVSTSCPDTEFVFKGDDDVFVNTHHILNYLNSLSKTKAKDLFIGDVIHNAGPHRDKKLKYYIPEVVYSGLYPPYAGGGGFLYSGHLALRLYHITDQVHLYPIDDVYTGMCLQKLGLVPEKHKGFRTFDIEEKNKNNICSYVDLMLVHSRKPQEMIDIWSQLQSAHLKC
notes: FLAG-tagged ORF overexpressed in A375 cells; pulled down from the lysate with mouse anti-FLAG; also called C-FLAG B3GNT2; C-term flag; not shown: C-terminal FLAG tag
In the case of B1, the “co-IP/MS count, C-term flag” value in the test with SRSF6 stood at 4; in the test with TGM1, 8; with HBB, 0; with DDX3X it was 23.
